Experimental data published in patent publication US20250243263A1 (VOYAGER THERAPEUTICS, published 2025).
Residue numbers refer to the chain shown, from its start. Where no end group is shown, it is not given here. [ ]: non-standard residue; d: D form. pT = C[C@@H](OP(=O)(O)O)[C@H](N)C(=O)O; pS = N[C@@H](COP(=O)(O)O)C(=O)O

B1: VY007 (antibody, V domains shown)
VH: EVQLVESGGGLVQPGGSLRLSCAASRFTFSNYNMNWVRQAPGKGLEWISYISSSSSTIYYADSVKGRFTISRDNAKNSLSLQMNSLRDEDTAVYYCASLGRGYWGQGTLVTVSS
VL: not shown
B2: VY001 (antibody, V domains shown)
VH: B1 VH with R26G, N31S, S56N, I70V, S80Y, S98T, T111I, V112A
VL: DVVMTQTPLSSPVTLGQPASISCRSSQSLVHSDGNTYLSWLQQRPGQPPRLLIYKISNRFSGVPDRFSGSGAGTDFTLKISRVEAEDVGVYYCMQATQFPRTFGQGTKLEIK
B3: VY006 (antibody, V domains shown)
VH: EVQLVESGGGLVQPGGSLRLSCAASGFTFSSYTMNWVRQAPGKGLEWVSYISSSSSTIYYADSVKGRFTISRDNAKNSLYLQMNSLRDEDTAVYYCASLGRGDCWGQGTLVTVSS
VL: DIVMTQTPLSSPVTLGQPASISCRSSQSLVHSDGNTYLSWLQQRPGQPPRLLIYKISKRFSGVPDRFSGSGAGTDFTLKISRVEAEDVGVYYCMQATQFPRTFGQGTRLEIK
B4: VY005 (antibody, V domains shown)
VH: B3 VH with T33S, V48I, S55N, Y59K, S98R, L99R, G100S, R101L, C104Y, T112I
VL: DIQLTQSPSFLSASVGDRVTITCRASQGISCSLAWYQQKPGKAPKLLIYAASTLQSGVPSRFSGSGSGTEFTLTISSLQPEDFATYYCQQFNSYPFTFGPGTKVDIK
B5: VY004 (antibody, V domains shown)
VH: EVQLVESGGGLVQAGGSLRLSCAASGFTFSDYSMNWVRQAPGKGLEWVSYIRSSSSIIYYADSVKGRFTISRDNAKNSLHLQMNSLRDEDTAVYYCARRGHFDYWGQGTLVTVSS
VL: EIVLTQSPATLSLSPGERATLSCRASQSVSDYLAWYQQKPGQAPRLFIYDVSKRATGIPARFSGSGSGTDFTLTISSLEPEDFAVYYCQQRSNWPLTFGGGTKVEIK
B6: VY017 (antibody, V domains shown)
VH: B5 VH with A14P, D31S, I57T, N77K, H80Y, G100S, H101I, F102A
VL: EIVLTQSPATLSSSPGERATLSCRASQSVTSYLNWYQQKPGQAPRLLIYDASNRATGIPARFSGSGSGTDFTLTISSLEPEDFALYYCQQRSNWPYTFGQGTKLEIK
B7: VY016 (antibody, V domains shown)
VH: EVQLVESGGGLVQPGGSLRLSCAASGFTFSSYSMNWVRQAPGKGLEWVSYISRSGSTIYYADSVEGRFTISRDNAYNSLYLQMISLRDDDTAVYYCARGNWAYWGQGILVTVSS
VL: QSVLTQPPSVSGAPGQRVTISCTGSSSNIGAGYDVHWYQQLPGTAPKLLIYGNSNRPSGVPDRFSGSKSGTSASLAITGLQAEDETDFYCQSYDSSLSGSVFGGGTKLTVL
B8: VY018 (antibody, V domains shown)
VH: QVQLQESGPGLVKPSETLSLTCTVSGGSISNYYWSWIRQPAGKGLEWIGRIYTSGDTYYNPSLQSRVTMSVDTSKNQFSLKLSAVTAADTAVYYCARAGIVGTPGLGMDVWGQGTTVTVSS
VL: SYELTQPPSVSVSPGQTARITCSGEALPKQYAYWYQQKPGQAPVLVIYKDSERPSGIPERFSGSSSGTTVTLTISGVQAEDEADYYCQSADSSGTYRVFGGGTKLTVL
B9: VY011 (antibody, V domains shown)
VH: QVQLQESGPGLVKPSETLSLTCTVSGGSISNYYWTWIRQPAGKGLEWIGRVYTSGSANYNPSLKSRVTMSVDTSKNQFSLTLSSVTAADTAVYYCARDRGLYYWGQGTLVTVSS
VL: DIVMTQTPLSSLVTLGQPASISCRSSQSLVHSDGNTYLSWLQQRPGQPPRLLIYKISKRFFGVPDRFSGSGAGTDFTLKINRVEAEDVGIYYCMQATQFPLTFGGGTKVEIK
notes: also called VY0I1; VY0111 (misprints in the text)
B10: VY009 (antibody, V domains shown)
VH: QITLKESGPTLVKPTQTLTLTCTLSGFSLSTSEVGVGWIRQPPGKALEWLAIIYWNDHKRYSPSLKNRLTFTKDTSKNQVVLTMTNMDPVDTATYYCARRVTGEGFDPWGQGTLVTVSS
VL: SYELTQPPSVSVSPGQTARITCSGDALPKQYAYWYQQKPGQAPVLVIFKDTERPSGIPERFSGSSSGTTVTLTISGVQAEDEADYYCQSADSSGSYVFGTGTKVTVL
B11: VY019 (antibody, V domains shown)
VH: QVQLQESGPGLVKPSETLSLTCTVSGGSISSYYWTWIRQPAGKGLEWIGRIDTSGSTNYNPSLKSRVTMSIDTSKKQFSLKLSSVTAADTAVYYCARGGDGYRYWGQGTLVTVSS
VL: B10 VL with Y33C, F48Y, T51S, S75T, A90T, Y96W, T100G, V104L
B12: VY012 (antibody, V domains shown)
VH: EVQLLESGGGLVQPGGSLRLSCAASGFTYSSYAMSWVRRAPGKGLEWISIISGSSSITYYADSMKGRFTISRDNSKNTLFLQMNSLRAEDTAVYYCAKGGRYGYFQHWGQGTLVTVSS
VL: SYVLTQPPSVSVAPGQTARITCGGNNIGSKSVHWYQQKPGQAPVLVVYDDSDRPSGIPERFSGSNSGNTATLTISRVEAGDEADYYCQVWDSSSDPVVFGGGTMLTVL
B13: VY013 (antibody, V domains shown)
VH: QVTLKESGPVLVKPTETLTLTCTVSGFSLINARMAVSWIRQPPGKALEWLAHIFSNDEKSYSTSLKSRLTISKDTSKSQVVLIMTNMDPVDTATYYCARIRGYSYNYGMDVWGQGTTVTVSS
VL: DIVMTQSPLSLPVIPGEPASISCRSSQSLLHSNGYIYLDWYLQKPGQSPQLLIYVGSNRASGVPDRFSGSGSGTDFKLKISRVEAEDVGVYYCMQTLQIPRTFGGGTKVEIK

How the values were obtained:
[1] = target: T1, enriched paired helical filament tau protein (ePHF; sarkosyl insoluble tau) (human, UniProt P10636 2-758); assay: direct ELISA, ePHF coated
Protocol: (§1) A set of recombinant human IgG1 antibodies were prepared with clone-specific variable domain pairs selected from those presented in Table 1 and human IgG1 constant domains. These candidate antibodies were analyzed for binding to ePHF and specificity for ePHF over wild type tau by direct ELISA.
(§2) For direct ePHF and wildtype tau ELISA, plates were first coated with ePHF or wild type tau. Antigen solutions were prepared in PBS and 50 μL were pipetted into each well. Plates were covered and incubated for one hour at 37° C. or overnight at 4° C. Plates were then washed and blocked by addition of 150 μl of blocking buffer to each well and incubated one hour at room temperature. Plates were then washed before addition of serially diluted candidate antibody samples prepared in blocking buffer. Detection of candidate antibody binding was carried out by washing plates and adding a solution of enzyme-labeled secondary antibody in blocking buffer to each well. Secondary antibody binding was detected by addition of substrate and spectrophotometric analysis of resulting reaction product.

[2] = target: T2, AT8 peptide (amino acids 195-215 of tau) (human, phospho-peptide, phosphorylated sites not stated in the example; immobilized on streptavidin tips); assay: BLI (Octet), phospho-peptide on streptavidin tips
T2 peptide: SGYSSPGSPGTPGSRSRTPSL
Protocol: Briefly, phospho-peptides were immobilized on streptavidin biosensor tips and the binding ability of each antibody was assessed using an eight-point concentration gradient.

[3] = target: T1, enriched paired helical filament tau …; assay: cell-based or functional assay
[4] = target: T3, iPHF (UniProt P10636-8 2-441, limits assumed); assay: SPR (Biacore 8K)
T3 construct: also called iPHF tau

[5] = target: T3, iPHF; assay: follow up selectivity analysis, iPHF over wild-type tau; method not stated
[6] = target: T1, enriched paired helical filament tau …; assay: follow up selectivity analysis, ePHF over wild-type tau; method not stated
[7] = target: T3, iPHF; assay: BLI (Octet), antibody on biosensor tip, iPHF in solution
Protocol: Anti-human tau antibodies were assessed for affinity for iPHF by Octet (ForteBio, Menlo Park, CA) analysis. A set of recombinant human IgG1 antibodies were prepared with clone-specific variable domain pairs selected from those presented in Table 1 and human IgG1 constant domains. Candidate antibodies were immobilized on biosensor tips (ForteBio) in kinetic buffer (ForteBio). Biosensor tips were then washed before introduction of a solution of iPHF in kinetic buffer for analysis of association and dissociation with candidate antibodies.

[8] = target: T4, pS199-old (SCBio-4PEG-Peptide, Tau191-214) (human, phosphoserine at S199 of tau by the row label; SCBio-4PEG label); assay: one point ELISA
T4 construct: The suffix -old is not explained
Source text: (§3) One-point ELISA was used to determine differential binding based on the individual phosphorylation patterns of each peptide. OD values (450 nm) were collected (as shown in Table 13), where a stronger positive signal is shown as a higher OD value, which is indicative of increased binding.

[9] = target: T5, Tau191-214 phospho-peptide (pS199) (human, phosphoserine at S199 of tau (peptide position 9); SCBio-4PEG label); assay: one point ELISA
T5 construct: also called pS199 peptide
Source text: as §3

[10] = target: T6, tPeptide 5 (204-222) (human); assay: one point ELISA
T6 peptide: GTPGSRSR[pT]P[pS]LP[pT]PPTRE
Source text: as §3

[11] = target: T7, AC04 peptide (human, phosphothreonine at T212 and T217 of tau (peptide positions 4, 9)); assay: one point ELISA
T7 construct: Tau-derived peptide with an N-terminal Cys
T7 peptide: CSRTPSLPTPPTREPK
Source text: as §3

[12] = target: T8, wtTau C2 (human); assay: one point ELISA
T8 peptide: PTREPKKVA
Source text: as §3

[13] = target: T9, wild type tau (human, UniProt P10636 2-758); assay: direct ELISA, wild type tau coated
T9 construct: also called WT
Protocol: as §1, §2

[14] = target: T10, AT270 peptide (pT181; Tau172-186) (human); assay: one point ELISA
T10 peptide: PAKTPPAPK[pT]PPSSG

[15] = target: Tau191-214 phospho-peptide (pS202) (human, phosphoserine at S202 of tau (peptide position 12); SCBio-4PEG label); assay: one point ELISA
Source text: as §3

[16] = target: Tau191-214 phospho-peptide (pT205) (human, phosphothreonine at T205 of tau (peptide position 15); SCBio-4PEG label); assay: one point ELISA
Source text: as §3

T5 sequence (peptide, as listed by the source): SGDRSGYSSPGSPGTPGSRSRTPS
T1 sequence (P10636 other isoform, or with tags, fused parts or gaps limits assumed): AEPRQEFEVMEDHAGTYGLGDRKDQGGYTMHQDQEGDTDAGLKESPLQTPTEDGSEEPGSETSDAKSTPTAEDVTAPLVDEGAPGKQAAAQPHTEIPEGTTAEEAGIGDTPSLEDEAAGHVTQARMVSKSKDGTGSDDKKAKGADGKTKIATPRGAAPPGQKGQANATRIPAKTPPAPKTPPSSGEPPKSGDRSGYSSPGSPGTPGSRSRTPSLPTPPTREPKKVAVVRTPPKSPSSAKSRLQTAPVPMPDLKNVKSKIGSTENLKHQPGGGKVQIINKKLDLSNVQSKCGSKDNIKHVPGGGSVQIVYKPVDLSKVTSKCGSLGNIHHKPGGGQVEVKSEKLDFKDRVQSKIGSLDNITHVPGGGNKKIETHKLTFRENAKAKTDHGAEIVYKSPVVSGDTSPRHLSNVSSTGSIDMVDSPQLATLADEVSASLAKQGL
T3 sequence (P10636 other isoform, or with tags, fused parts or gaps limits assumed): as above
T9 sequence (P10636 other isoform, or with tags, fused parts or gaps limits assumed): as above

| Binder | EC50 [1] | Kd [2] | Average IC50 (nM) for inhibiting tau aggregation after immunodepletion of ePHF (tau RD Biosensor cells) [3] | Kd [4] | selectivity iPHF:WT [5] | selectivity ePHF:WT [6] | Kd [7] | further results |
| --- | --- | --- | --- | --- | --- | --- | --- | --- |
| B1 | 0.18 nM | 18.2 pM | 36.3 nM | 0.596 nM | > 109 fold | > 23 fold | 0.6 nM | OD (450 nm) [8]: 0.057 OD450; OD (450 nm) [9]: 0.057 OD450 |
| B2 | 0.02 nM | 4.35 pM | 12.5 nM | 0.293 nM | > 30 fold | > 181 fold | 7.7 nM | OD (450 nm) [8]: 0.059 OD450; OD (450 nm) [9]: 0.059 OD450 |
| B3 | 0.11 nM | 3.82 pM | 8.3 nM | 0.356 nM | > 145 fold | > 40 fold | 1.5 nM | OD (450 nm) [8]: 0.063 OD450; OD (450 nm) [9]: 0.054 OD450 |
| B4 | 0.07 nM |  |  |  |  |  | 1 nM | OD (450 nm) [10]: 0.288 OD450; OD (450 nm) [11]: 2.83 OD450; OD (450 nm) [12]: 0.153 OD450 |
| B5 | 0.07 nM |  | 9.39 nM | 11.7 nM | > 382 fold | > 59 fold | 3.7 nM | OD (450 nm) [10]: 0.382 OD450; OD (450 nm) [11]: 2.85 OD450; OD (450 nm) [12]: 0.169 OD450 |
| B6 |  |  |  |  |  |  | 3.7 nM |  |
| B7 |  |  |  |  |  |  |  | binding result [1]: no binding; binding result [13]: no binding |
| B8 |  |  |  |  | > 73 fold |  | 3 nM |  |
| B9 | 0.03 nM | 8.9 pM | 18.1 nM | 0.238 nM | > 108 fold | > 137 fold | 2 nM | binding result [14]: no binding; OD (450 nm) [15]: 0.06 OD450; OD (450 nm) [16]: 0.06 OD450 |
| B10 | 1.74 nM |  |  |  |  |  | 1.1 nM |  |
| B11 |  |  |  |  |  |  |  | binding result [1]: no binding; binding result [13]: no binding |
| B12 | 0.04 nM |  |  |  |  |  | 5.1 nM | EC50 [13]: 0.01 nM |
| B13 | 0.06 nM |  |  |  |  |  | 2.9 nM | EC50 [13]: 0.98 nM |
